Data: US20180333502A1 (published 2018)

T1: human CD73 on Calu6 cells (human, UniProt P21589 27-549)
T1 sequence (looked up): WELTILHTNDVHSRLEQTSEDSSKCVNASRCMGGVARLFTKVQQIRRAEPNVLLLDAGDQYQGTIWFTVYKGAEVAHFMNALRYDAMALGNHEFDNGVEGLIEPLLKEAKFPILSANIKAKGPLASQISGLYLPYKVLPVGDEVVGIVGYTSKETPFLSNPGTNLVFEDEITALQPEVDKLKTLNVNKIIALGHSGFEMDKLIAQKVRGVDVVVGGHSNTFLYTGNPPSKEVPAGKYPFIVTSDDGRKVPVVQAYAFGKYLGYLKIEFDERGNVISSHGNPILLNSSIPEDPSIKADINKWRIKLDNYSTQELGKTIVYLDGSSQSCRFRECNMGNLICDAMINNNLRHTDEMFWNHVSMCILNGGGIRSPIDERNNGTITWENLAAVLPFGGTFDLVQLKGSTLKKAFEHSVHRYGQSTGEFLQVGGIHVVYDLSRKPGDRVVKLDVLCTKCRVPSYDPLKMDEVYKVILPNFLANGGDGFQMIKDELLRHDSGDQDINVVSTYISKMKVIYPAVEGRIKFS

T2: human GITR on cells (activated human T cells; 3A9-hGITR cells) (human, UniProt Q9Y5U5 26-241)
T2 sequence (looked up): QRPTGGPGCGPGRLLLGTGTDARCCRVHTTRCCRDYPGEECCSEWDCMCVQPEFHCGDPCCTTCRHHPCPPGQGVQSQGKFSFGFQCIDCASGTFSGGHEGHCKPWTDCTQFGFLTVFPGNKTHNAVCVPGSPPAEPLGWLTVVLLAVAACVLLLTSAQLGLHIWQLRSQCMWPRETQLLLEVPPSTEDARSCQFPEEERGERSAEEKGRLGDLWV

B1: CD73.10-IgG2-C219S (antibody)
heavy: QVQLVESGGGVVQPGRSLRLSCAASGFTFSNYGMHWVRQAPGKGLEWVAVIWYDESNKYYPDSVKGRFTISRDNSKNTLYLQMNSLRAEDTAVYYCARGGSSWYPDSFDIWGQGTMVTVSSASTKGPSVFPLAPCSRSTSESTAALGCLVKDYFPEPVTVSWNSGALTSGVHTFPAVLQSSGLYSLSSVVTVPSSNFGTQTYTCNVDHKPSNTKVDKTVERKSCVECPPCPAPPVAGPSVFLFPPKPKDTLMISRTPEVTCVVVDVSHEDPEVQFNWYVDGVEVHNAKTKPREEQFNSTFRVVSVLTVVHQDWLNGKEYKCKVSNKGLPAPIEKTISKTKGQPREPQVYTLPPSREEMTKNQVSLTCLVKGFYPSDIAVEWESNGQPENNYKTTPPMLDSDGSFFLYSKLTVDKSRWQQGNVFSCSVMHEALHNHYTQKSLSLSPG
light: not shown
B2: CD73.10-IgG2-C219S-IgG1.1 (antibody)
heavy: QVQLVESGGGVVQPGRSLRLSCAASGFTFSNYGMHWVRQAPGKGLEWVAVIWYDESNKYYPDSVKGRFTISRDNSKNTLYLQMNSLRAEDTAVYYCARGGSSWYPDSFDIWGQGTMVTVSSASTKGPSVFPLAPCSRSTSESTAALGCLVKDYFPEPVTVSWNSGALTSGVHTFPAVLQSSGLYSLSSVVTVPSSNFGTQTYTCNVDHKPSNTKVDKTVERKSCVECPPCPAPPVAGPSVFLFPPKPKDTLMISRTPEVTCVVVDVSHEDPEVKFNWYVDGVEVHNAKTKPREEQYNSTYRVVSVLTVLHQDWLNGKEYKCKVSNKALPSSIEKTISKAKGQPREPQVYTLPPSREEMTKNQVSLTCLVKGFYPSDIAVEWESNGQPENNYKTTPPMLDSDGSFFLYSKLTVDKSRWQQGNVFSCSVMHEALHNHYTQKSLSLSPG
light: not shown
B3: anti-GITR-IgG2 (antibody)
heavy: QVQLVESGGGVVQPGRSLRLSCAASGFTFSSYGMHWVRQAPGKGLEWVAVIWYEGSNKYYADSVKGRFTISRDNSKNTLYLQMNSLRAEDTAVYYCARGGSMVRGDYYYGMDVWGQGTTVTVSSASTKGPSVFPLAPCSRSTSESTAALGCLVKDYFPEPVTVSWNSGALTSGVHTFPAVLQSSGLYSLSSVVTVPSSNFGTQTYTCNVDHKPSNTKVDKTVERKCCVECPPCPAPPVAGPSVFLFPPKPKDTLMISRTPEVTCVVVDVSHEDPEVQFNWYVDGVEVHNAKTKPREEQFNSTFRVVSVLTVVHQDWLNGKEYKCKVSNKGLPAPIEKTISKTKGQPREPQVYTLPPSREEMTKNQVSLTCLVKGFYPSDIAVEWESNGQPENNYKTTPPMLDSDGSFFLYSKLTVDKSRWQQGNVFSCSVMHEALHNHYTQKSLSLSPGK
light: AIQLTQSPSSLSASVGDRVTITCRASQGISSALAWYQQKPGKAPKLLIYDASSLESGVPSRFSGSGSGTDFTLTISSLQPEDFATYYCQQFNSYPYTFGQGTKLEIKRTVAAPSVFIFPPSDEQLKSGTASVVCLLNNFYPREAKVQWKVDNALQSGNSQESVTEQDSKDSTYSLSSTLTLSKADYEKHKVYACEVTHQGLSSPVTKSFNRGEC
B4: CD73.4-IgG2.3G1.1f-KH (antibody)
heavy: QVQLVESGGGVVQPGRSLRLSCAASGFTFSNYGMHWVRQAPGKGLEWVAVILYDGSNKYYPDSVKGRFTISRDNSKNTLYLQMNSLRAEDTAVYYCARGGSSWYPDSFDIWGQGTMVTVSSASTKGPSVFPLAPCSRSTSESTAALGCLVKDYFPEPVTVSWNSGALTSGVHTFPAVLQSSGLYSLSSVVTVPSSNFGTQTYTCNVDHKPSNTKVDKTVERKSCVECPPCPAPPVAGPSVFLFPPKPKDTLMISRTPEVTCVVVDVSHEDPEVKFNWYVDGVEVHNAKTKPREEQYNSTYRVVSVLTVLHQDWLNGKEYKCKVSNKALPSSIEKTISKAKGQPREPQVYTLPPSREEMTKNQVSLTCLVKGFYPSDIAVEWESNGQPENNYKTTPPVLDSDGSFFLYSKLTVDKSRWQQGNVFSCSVMHEALHNHYTQKSLSLSPGK
light: not shown
B5: 11F11 (antibody, human IgG2, kappa, V domains shown)
VH: QVQLVESGGGVVQPGRSLRLSCATSGFTFSNYGMHWVRQAPGKGLEWVAVILYDGSNKYYPDSVKGRFTISRDNSKNTLYLQMNSLRAEDTAVYYCARGGSSWYPDSFDIWGQGTMVTVSS
VL: DIQMTQSPSSLSASVGDRVTITCRASQGISSWLAWYQQKPEKAPKSLIYAASSLQSGVPSRFSGSGSGTDFTLTISSLQPEDFATYYCQQYNSYPLTFGGGTKVEIKR

Legend:
[1] = target: T1, human CD73 on Calu6 cells; test: cell-based or functional assay
[2] = target: T2, human GITR on cells (activated human T …); test: cell-based or functional assay

Binder	Ymax, CD73 internalization, Calu6 cells, 2 h [1]	Emax (%), phospho-p65 NFkB signaling, CD4+ T cells [2]	Emax (%), phospho-p65 NFkB signaling, CD8+ T cells [2]
B1	99 % of 100 nM 11F11		
B2	99 % of 100 nM 11F11		
B3		69 % of GITR.6.G2.G1f	85 % of GITR.6.G2.G1f
B4	97 % of 100 nM 11F11		
B5	98 % of 100 nM 11F11		
